The results in this text go back to EP1591450A1, “CONJUGATE FOR RETENTION IN BLOOD AND CANCER TISSUE-SPECIFIC DRUG DELIVERY” (YAMANOUCHI PHARMACEUTICAL CO. LTD., priority 2003, dated 2004).

Where a SMILES comes first, the peptide text is derived from it. The star is where a group is joined. X1 = O=C(OCC1c2ccccc2-c2ccccc21)N(CC(=O)*)C(=O)OCC1c2ccccc2-c2ccccc21; Fmoc = O=C(OCC1c2ccccc2-c2ccccc21)*

Data set [1] addresses T1, MMP-2 (Homo sapiens, UniProt P08253).
T1 sequence (P08253 110-660): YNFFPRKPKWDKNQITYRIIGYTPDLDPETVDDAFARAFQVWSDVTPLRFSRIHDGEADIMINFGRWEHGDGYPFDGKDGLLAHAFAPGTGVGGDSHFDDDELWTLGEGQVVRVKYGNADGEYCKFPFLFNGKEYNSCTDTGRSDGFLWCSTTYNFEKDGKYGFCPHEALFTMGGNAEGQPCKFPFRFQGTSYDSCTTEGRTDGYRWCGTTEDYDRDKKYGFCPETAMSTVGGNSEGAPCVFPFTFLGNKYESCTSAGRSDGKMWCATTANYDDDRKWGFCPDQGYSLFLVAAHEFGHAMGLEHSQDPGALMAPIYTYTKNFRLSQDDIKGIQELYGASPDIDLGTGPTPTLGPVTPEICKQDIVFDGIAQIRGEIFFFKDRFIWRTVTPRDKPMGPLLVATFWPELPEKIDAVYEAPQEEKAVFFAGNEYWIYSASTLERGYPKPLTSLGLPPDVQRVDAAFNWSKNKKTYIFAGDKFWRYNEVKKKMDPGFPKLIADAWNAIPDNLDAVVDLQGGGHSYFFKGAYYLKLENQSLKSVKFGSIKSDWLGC
As to the kind of experiment: Enzymatic degradation of peptide and peptide-PEG by MMP-2. In kind it is biochemical. Conditions: beginning of reaction (15 minutes), 37°C, Tris buffer pH 7.5; Figure 4. As to the method: After mixing in 0.5 ml of sample in 0.5 ml of acetonitrile, the mixture was filtered and gel filtration was performed.
MMP-2 solution was diluted with Tris buffer. […] The final concentration of MMP-2 was 0.34 µg/ml. […] The Fmoc-GPQGIAGWG-PEG in the filtrate was separated and quantitatively determined by gel filtration.

Data set [2] is described as follows: Particle diameter determination of peptide-PEG micelles (NICOMP Model 370). The data set is classed as physicochemical. As to the method:
The particle diameter of the micelles and the liposomes was determined with the NICOMP Model 370 (Particle Sizing Systems, Inc.).
Then particle diameter was determined by a laser diffraction particle diameter distribution determination device (NICOMP Model 370)(Table1).

Data set [3] addresses T2, trypsin (Bos taurus, UniProt P00760).
T2 construct: gene PRSS1
T2 sequence (P00760 24-246): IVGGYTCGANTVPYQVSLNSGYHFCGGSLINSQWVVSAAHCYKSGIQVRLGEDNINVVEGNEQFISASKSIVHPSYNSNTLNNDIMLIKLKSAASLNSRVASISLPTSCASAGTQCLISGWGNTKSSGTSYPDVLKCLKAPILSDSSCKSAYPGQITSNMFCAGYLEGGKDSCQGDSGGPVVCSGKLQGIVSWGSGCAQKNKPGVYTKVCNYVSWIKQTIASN
The data set is described as follows: Enzymatic degradation of peptide by trypsin. In kind it is biochemical. Conditions: trypsin 10 µg/ml, 37°C, Tris buffer pH 7.5. The protocol: (§1) Fmoc-[…] was dissolved in Tris buffer (100 mM Tris/100 mM NaCl/10 mM CaCl2/0.05% BRIJ35, pH 7.5) and adjusted to a pre-determined concentration. MMP-2, collagenase, carboxypeptidase A, aminopeptidase-1, and trypsin were each diluted or dissolved in Tris buffer. Each enzyme solution was added to Fmoc-[…] solution that had been heated to 37°C and incubated for a pre-determined time at 37°C. The final concentration of the enzymes was as shown below: MMP-2: 0.17 µg/ml, collagenase: 7 µg/ml, carboxypeptidase A: 10 µg/ml, aminopeptidase-1: 10 µg/ml, trypsin: 10 µg/ml. After a pre-determined time, the same amount of acetonitrile was added to the sample solutions and they were filtered with a 0.5 µm filter (Millex-LH MILIPORE).

Data set [4] concerns collagenase. Conditions: per unit weight of enzyme and unit time, beginning (15 minutes) of reaction, 37°C, Tris buffer pH 7.5; MMP-2 0.17 µg/ml, collagenase 7 µg/ml. The protocol:
as §1

Data set [5] concerns the target carboxypeptidase A (Homo sapiens, UniProt P15085). Conditions: per unit weight of enzyme and unit time, beginning (15 minutes) of reaction, 37°C, Tris buffer pH 7.5; MMP-2 0.17 µg/ml, carboxypeptidase A 10 µg/ml. The protocol: as §1
In data set [6] the test system is aminopeptidase-1. Conditions: per unit weight of enzyme and unit time, beginning (15 minutes) of reaction, 37°C, Tris buffer pH 7.5; MMP-2 0.17 µg/ml, aminopeptidase-1 10 µg/ml. The protocol: as §1

Chain of carboxypeptidase A (P15085 111-419): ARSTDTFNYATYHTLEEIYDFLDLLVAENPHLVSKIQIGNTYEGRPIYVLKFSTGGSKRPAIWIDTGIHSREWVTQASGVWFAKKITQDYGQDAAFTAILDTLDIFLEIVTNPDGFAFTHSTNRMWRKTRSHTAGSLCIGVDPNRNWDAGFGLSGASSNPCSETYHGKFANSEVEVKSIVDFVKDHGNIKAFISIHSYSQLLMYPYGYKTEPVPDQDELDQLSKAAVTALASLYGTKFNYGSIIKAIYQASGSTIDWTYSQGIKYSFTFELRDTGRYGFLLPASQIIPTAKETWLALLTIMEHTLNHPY

On to “9-fluorenylmethyloxycarbonyl (Fmoc)-glycyl-prolyl-glutamyl-glycyl-isoleucyl-alanyl-glycyl-tryptophanyl-glycyl (Gly-Pro-Gln-Gly-Ile-Ala-Gly-Trp-Gly)-amide propyl polyoxyethylene methyl ether (Fmoc-GPQGIAGWG-{amide propyl polyoxyethylene methyl ether}; not fully specified) [Fmoc-GPQGIAGWG-PEG]”, for which the “degradation rate by MMP-2 per unit weight of MMP-2 and unit time, peptide compared with peptide-PEG” value in data set [1] was “virtually the same”. Besides, the Particle diameter in data set [2] (Concentration 5 µM in Tris buffer pH 7.5) is listed as 232 nm; in data set [2] (Concentration 10 µM in Tris buffer pH 7.5), 200 nm; in data set [2] (Concentration 20 µM in Tris buffer pH 7.5), 205 nm; in data set [2] (Concentration 50 µM in Tris buffer pH 7.5), 210 nm; in data set [2] (Concentration 100 µM in Tris buffer pH 7.5), 237 nm. Besides, the “particle diameter of aggregate” value in data set [2] (at 5 µm or more) is “approximately 200 nm”. The same molecule gave a critical micelle concentration in data set [2] (concluded from particle diameter and laser scattering intensity, Tris buffer pH 7.5) of around 5 µM.

On to `CC[C@H](C)[C@H](NC(=O)CNC(=O)[C@H](CCC(=O)O)NC(=O)[C@@H]1CCCN1C(=O)CN(C(=O)OCC1c2ccccc2-c2ccccc21)C(=O)OCC1c2ccccc2-c2ccccc21)C(=O)N[C@@H](C)C(=O)NCC(=O)N[C@@H](Cc1c[nH]c2ccccc12)C(=O)NCC(=O)O` [Fmoc-GPQGIAGWG, 9-fluorenylmethyloxycarbonyl (Fmoc)-glycyl-prolyl-glutamyl-glycyl-isoleucyl-alanyl-glycyl-tryptophanyl-glycine (Gly-Pro-Gln-Gly-Ile-Ma-Gly-Trp-Gly)] (X1-PEGIAGWG-OH), for which the “degradation rate by MMP-2 per unit weight of MMP-2 and unit time, peptide compared with peptide-PEG” value in data set [1] is on record as “virtually the same”. The Degradation by trypsin entry in data set [3] is reported as “not observed”. Moreover, in data set [4], the “degradation rate by MMP-2 relative to that of collagenase” value is listed as 26.9 x. The “degradation rate by MMP-2 relative to that of carboxypeptidase A” value in data set [5] worked out at 38.8 x. Further, the “degradation rate by MMP-2 relative to that of aminopeptidase-1” value in data set [6] came out at 14.2 x.
